From a protein production outcome set (Wang et al. 2014)

Experiment: label from the status in PepcDB records

Sequence	protein production
MFVNSNGYNLGVREDEVVVNDVDLPPWAKKPEDFVRINRMALESEFVSCQLHQWIDLIFGYKQRGPEAVRALNVFHYLTYEGSVNLDSITDPVLREIPEAYFIRDPHTFLLTKDFIKAMEAQIQNFGQTPSQLLIEPHPPRSSAMHLCFLPQSPLMFKDQMQQDVIMVLKFPSNSPVTHVAANTLPHLTIPAVVTVTCSRLFAVNRWHNTVGLRGAPGYSLDQAHHLPIEMDPLIANNSGVNKRQITDLVDQSIQINAHCFVVTADNRYILICGFWDKSFRVYSTETGKLTQIVFGHWDVVTCLARSESYIGGDCYIVSGSRDATLLLWYWSGRHHIIGDNPNSSDYPAPRAVLTGHDHEVVCVSVCAELGLVISGAKEGPCLVHTITGDLLRALEGPENCLFPRLISVSSEGHCIIYYERGRFSNFSINGKLLAQMEINDSTRAILLSSDGQNLVTGGDNGVVEVWQACDFKQLYIYPGCDAGIRAMDLSHDQRTLITGMASGSIVAFNIDFNRWHYEHQNRY	failed
MRFRYAMVCSSNQNRSMEAHALLKRQGLDVASYGTGSHVKLPGPSLREPNVYDFGTPYKQMFDELRRKDPELYKRNGILQMIKRNLSVKLAPQRWQDNAGDGVFDVVMTFEEKVFDSVLEDLNNREQSLTKTILVMNLEVKDNHEEAAIGGRLALELCQEIEGNETWEDTIDDIVAGFEKQHRRKLVYSISFY	failed
MEVGMIPRVYLGHEWFGAERILSEYQVPEDCGAQVLFLGIPRNAPEDGGNIEALEYEAYPEMAIKEMEKIRQETIEKFGVKEVFIHHRLGLVKIGEPSFLVLAVGGHREETFKACRYAVDETKKRVPIWKKEIFKEGKGEWVLGEKKNASGQTK	not failed
MDPVLLLSALLLLAFGLIGVGTAEPGLLQDHLLRVGAALLALVLGHLLPPRLLLRYALHALVGVLLLLVLVLLVGDGPGGVRRWFYLGPVALQPSELAKLALILYLSSFVGRRGEDYPILGPVLAVGSLVGLVLVEPDFATAAFLAGLAVLLFVLAGIPWPRLLGMGLAVALVVLPFSGLYLAQFRYVSERFANFVDYLQGESEPGGGAYQVVQAKKALLLGGPFGQGPGATLPHLPEAHNDMVFASVVFATGWLGGAVVFLLYTLILLRSLAVGLALKGGERLLALGLGLYLALQAALNIGVTLGVLPVTGVPLPLVSYGGSSLLVSGFAVGLLSRLAREAAERPRRKGVAR	failed
MSLFLKDDSIQIREVWNDNLQEEMDLIRDVVDDFPYVAMDTEFPGIVVRPVGTFKSNADYHYETLKTNVNILKMIQLGLTFSNEQGNLPTCGTDKYCIWQFNFREFDLDSDIFALDSIELLKQSGIDLAKNTLDGIDSKRFAELLMSSGIVLNENVHWVTFHSGYDFGYLLKLLTCQNLPDSQTDFFKLINVYFPTVYDIKHLMKFCNSLHGGLNKLAELLEVERVGICHQAGSDSLLTSCTFRKLKENFFVGPLHKYSGVLYGLGVENGQVAI	failed
MDQNVPISKKLWNIVRFLLYMIRKGVSKNKLIADFNATLKRGKNLMFHQRRRVHAGSTASAALNATSATASSRQEYEFSCSNTPNYSFPFSNMAFMRKKSHNNLFTCGQTPQTLDDDVAAARAVLELLNGVGEKGNVTPADLTVALSPYFPGFGQTPLVRPLRVTDSPFPLTPENGDVANGHVDKAADDFIKKFYKNLNQQKKMIEFS	failed
MNHPAHHGPTVTPKRRHPDSTGAAPVGIVIATRNRRASLAVTVRNLLALPERPDVLVVDNASTDDTRAMLARDFPQVRVLPLPYNRGALARTHGVRALDTPYVAFSDDDSWWAPGALGAAARHFDDHPRLGLLSARTLVGPGDAADPLNDLLADSPLGTATDLPGTQVLGFLGCAAVARRTAYLDAGGYHPLLFFGGEETLLAYDLAARGWGVTHCPDVIAHHHPHPRPRTGRPAVVRRNALLTAWLRRPLPHALARTRALAADARRDPHARHALRETLTRLPAALRARRPLPPHVERAARLLDGADGPDGPGGAVSLEHHHHHH	not failed
MEAPTVLDVGCGDGARTLANLPPRSVGLDFSRAGLDLAAETVPDSRLVQGDMGSLPVTTDSVDAITAYHAVFHVQRDQHPEVYREFARVLRPGGTVLMTLPSGQFETVRRGWMGGSMFFSAPGRRATLDQLADAGFTETETVTATDPLGSDSEFVFATLADALEHHHHHH	failed
MQHSTLEPSTSLDVPSCIPRVSRYPRVKDVIARKYRLVVKTIGYIGWSLFWLLIWDVLVTIDFMLFLNSKFTLPLIPLTLLGSALVVLVSFRNSSAYSRWWEARTLWGALVNSSRSFARQTLTLIDDPDDGLNPVKATLLRRHIAYVNCLAAHLKGESCPEELMAFIPPAEFERRNRSNNFANDILGGSAALLAREYQAGRLDSIRLARLESTLVDLSNAQGGMERIANTPLPYPYVYFPRLFITLFCLIVPVGLVESLGWFTPLASTVVGFMLLAIERIGTDLQSPFRFSEHQIQMDTICETIERNLESMQREAQCAEAVDA	failed
MTTLVPLNRIDSQKIEDLLDIGFGKDRHGRTAYRLRQGVSAIPELSFAAVDGDILQGIIQCWPIRLSCLNGKKLPMILLGPVAVHPDYQGHGIGQTLVQHSLDVADSSDITGHDAVMLIGDPEYYNRFFGFSDEETGDWRLPGPVEKRRLLARLTSPRL	failed
MIERILASLILCLMLGIPFGMMFSFTGDVVLNFTFFWPLFMSGLWITGGLYFWFHYERHWRWGDGVIPDEPTGRPLVSILIPCYNEGPNVRETIEAALAQRYTHIEVIAVNDGSNDDTGDELNRLAEQYDKLRVIHLAHNQGKALALQAACAAAKSDLLVCIDGDALLDPDAVAYLINPLINNPRVGAVTGNPRIRTRSTLIGRIQVGEFSSIIGLIKRTQRVHGKVFTVSGVIAAFRRSALAEVGYWSPDMITEDIDISWKLQLRHWTIFFEPRALCWILMPEKLSGLWKQRLRWAQGGAEVFLKNFRHLWSWRYRRMWPLFLEYSISILWAFTYAVSVLLYLLGFLIELPEEIRVETLFPPAFTGMMIGVVCLIQFAVSMLIERRYEKDIGKYLFWVIWYPMVYWTLSLFTSLVSFPKVMLRSRKKRARWESPDRGIERG	failed
MTQPELTPAQRTEVELLARGRADKSRVLRDLKLPETPEAAHALLLRLGVWDEARTPYADRLRAALNAVELPVPDFDPAEERLDLTHLPTFAIDDEGNQDPDDAVGVEDLGGGLTRLWVHVADVAALVAPDSPLDLEARARGATLYLPDRTIGMLPDELVAKAGLGLHEVSPALSICLDLDPDGNAEAVDVLLTRVKVQRLAYQEAQARLEAGEEPFVTLARLARASRRLREGEGALSIDLPEVRVKADETGASVFPLPKPEMRTVVQECMTLAGWGTAIFADDNEIPLPFATQDYPTREVAGDTLPAMWARRKTLARTRFQPSPGPHHGMGLDLYAQATSPMRRYLDLVVHQQLRAFLAGRDPLSSKVMAAHIAESQMNADATRQAERLSRRHHTLRFIAAQPERVWDAVVVDRRGAQATLLIPDLAFDVQVNTPAAPGTALQVQFADIDLPQMRVRARSVLEHHHHHH	not failed
MFDFSIVTNWIHEMLLSVMPEGWAIFIECIAVGVCIVALYAILAIVLIYMERKVCGFFQCRLGPNRVGKWGSIQVICDVLKMLTKEIFTPKDADRFLYNLAPFMVIIASFLTFACIPFNKGAEILNFNVGVFFLLAASSIGVVGILLAGWGSNNKFSLIGAMRSGAQIISYELSVGMSIMTMVVLMGTMQFSEIVEGQADGWFIFKGHIPAVIAFIIYLIAGNAECNRGPFDLPEAESELTAGYHTEYSGMHFGFFYLAEYLNLFIVASVAATIFLGGWMPLHIIGLDGFNAVMDYIPGFIWFFAKAFFVVFLLMWIKWTFPRLRIDQILNLEWKYLVPISMVNLLLMACCVAFGFHF	failed
MSLKIKVYLYTRVSTSIQIEGYSLEAQKSRMKAFAIYNDYEIVGEYEDAGKSGKSIEGRIQFNRMMEDIKSGKDGVSFVLVFKLSRFARNAADVLSTLQIMQDYGVNLICVEDGIDSSKDAGKLMISVLSAVAEIERENIRIQTMEGCIQKAREGKWNGEGHHHHHH	not failed
MMVPDVSNFAVILTTSGAILLIAYLTAISARDVIRLLISLELMFAAVFLAIVPLFSINPPMAYAVAIITAFTSSTELMVLVTAIILLDRRKRGIDVDKVAVGGDSL	failed
MAALRYAGLDDTDSEDELPPGWEERTTKDGWVYYANHTEEKTQWEHPKTGKRKRVAGDLPYGWEQETDENGQVFFVDHINKRTTYLDPRLAFTVDDNPTKPTTRQRYDGSTTAMEILQGRDFTGKVVVVTGANSGIGFETAKSFALHGAHVILACRNMARASEAVSRILEEWQQGAATTVYCAAVPELEGLGGMYFNNCCRCMPSPEAQSEETARTLWALSERLIQERLGSQSG	not failed
MSGVKIAFIRHHDLWIKVDGKEKQLTKGEYITGPKWSYDGEWLAYVKGEKQNTLELYRLKDGKKVTPFHSEVSNYQWSPTENIIAFIFTGTLHTFKVEKKNADFENVSAGVGDYAWYPNGKKFLVSSEAHLLPTGWTGAQLYEVQKDAHMNPHKMKHLYALPNEHDDFLALVASGFQWSPDQKWISFLAVPTASWSADSNTLCLVRADGSRFEKVDQMLLNTQWFKWAPANNILAYIEGSGRVALENKHLKVKELPALQQNTFTPKGYVDWDFTWKNDNVIIVSRAKEAGIETPPEKRPLPSLYEIDSTSDEQHRITKPPHRQGDYHPLFMNKSNQLIWIRSDRKKADVWLAHKDGKHEMKWIENIDVPLEHHHHHH	failed
MSALREALRDLPDAVFADVLESEDEYLLVLDLPGVTAETIDVTVEGGRLRIDGQRTKDVPGEFTFVREDRSVFLDAELPLPPDTTGQGGEGTVENGVLELRLPKATAAPSTTIPIDGD	failed
PDTIIAVDRDHRIIYVNRAMPGHKKTLAVGDHLCDHIMQPYHDRYHHTIERVIVTGKTAVLECELVVSPEETIELESRFAPCFLNGEVTSVVMLSVDITERKGMELELKKTLIDLERFNRVMVGRELRNIELKKRIASLQNDLVLSSGNAQASDDSRQDFATEDEDCAGIHHGDGFEEACDEVQYRKQQRMALLNLIEDANLARNELLETNRKLEESVIRTQEMARAASKANEAKSQFLANMSHEVRTPMNGVIGMSDLLLDTS	failed
TSIRQGASNVICAYRRDEENMPGSRREVKNAKEEGVKFMFNLQPLGIEVDAYGKVSGVKVVKTALGEPDDAGRRRPEPVEGSEHVLPADAVIMAFGFQPHQMDWLTPFNVELDQWGRIKAPNNQEFQYQTSNEKIFAGGDAVRGSDLVVTAIDEGRKAAEGILDYLDV	failed
MDWITLLRSLQSDFIKRLSSGCLLHCEIEGQYSELTVISGERLKTLRDFCWLMAEKYKRVSPVRDVFISYLKGKLGEEVVKERLADLITEVDYEKRLGGDGKIDFTLTANPAIGIEVKSRHGNIDRVRWSVSAEEVEKNAVVVCIFIKEDVNEAQSSYHLLLAGFLPTQMIKLKTGNISFGIEQLLYGGGLWGYLEQLQASANYHQFQQSPPIYQYKPQPELLSKINQTQSIKPALFTGIKNILPYRQQEAINIDYIKIGDECFAQGEYTASIKNYSQALQASSDNCELYYKRGLSYYQLGDYEAAIADYSQAININLHDAKSYHKRGLALSQLAAYEAAIDDYNQAIRINPHAASIYKNRAEARSHLGDNQGAIEDYTQAIKINPQYADTYKNRGISRYLLATQPGFTQAIKINPNDANAYKNRGNARADIGDYLGAIEDYNQAIQINPKAADAYYNRGNARYDLGDEEGAIADYTQAIQINPSYADAYYNRGNVRAGIKDKQGAIADFQKAADIYRKEGKLAELKDTTERVVELEIEESIDILNF	failed
MKKILLSLITAAVLLSCQSSRDTSHKYTAITPGVEWLDTNNEKINAHGGGILYHEGIYYWYGECKSDSTYWNPNVPGWECYRTEAGGVNCYSSKDLLNWKYEGLVLQPEISDTQSDLHPSKVLERPKVIYNDKTKKFVMWLHVDSDDYNKAAAGVAVSDSPTGVFTYLGSMHPNGQISRDMTLFKDDDGKAYHIYSSEQNSTLYISLLSDDYLKPSGTFTRNFAGKFREAPAVFKHNGLYYVISSGCTGWSPNEAEYAVATQILGPWTVKGNPCVGKDADKTFYGQSTHVLPIQGKKDAYIAMFDKWNKTDLIHSTYIWLPIQFREDGSMAIQWLDSWSPDTYEF	failed
